Source: US20200299367A1 (ARIZONA BOARD OF REGENTS ON BEHALF OF ARIZONA STATE …, published 2020)

B1: F9T scFv (scFv)
scFv: QVQLQESGGGVVQPGRSLRLSCAASGFTFSTSGMHWVRQAPGKGLEWVAFILHDGSDKYYADSVKGRFTISRDNSKNTLYLQMNSLRAEDTAIYYCAKSQRELLGAEYLQNWGQGTLVTVSSGGGGSGGGGSGGGGSQSALTQPASVSGSPGQSITISCTGTSSDVGGYKYVSWYQQHPGKAPKVMIYDVSNRPSGVSNRFSGSKSGNTASLTISGLQAEDEADYYCSSYTSSSTLVFGGGTKVTVLGAAAHHHHHHGAAEQKLISEED
notes: Expressed from pIT2 with a hexahistidine tag and a c-myc tag; the format is named under assay; also called F9T nanobody; F9 (clone before frame-shift repair)
B2: G12C scFv (scFv)
scFv: RVQLVESGAEVTKPGASVRVSCKASGYTFSRYDINWVRQASGQGLEWMGWINPNSGNTGYAQKFQGRVTMTRNISITTAYMELSSLRSEDTAVYYCARGLPEFDPWGQGTLVTVSSGGGGSGGGGSGGGGSHVILTQDPAVSVALGQTVRITCQGDSLRSYYASWYQQKPGQAPVLVIYGKNNRPSGIPDRFSGSSSGNTASLTITGAQAEDEADFYCNSRDSSGTHLEVFGGGTKVTVLGAAAEQKLISEEDLNGAA
notes: also called G12 (clone before frame-shift repair)
B3: D4G scFv (scFv)
scFv: QVQLVASGGDLIQPGGSLRLSCAASGFTFNNYWMTWVRQAPGKGLEWVANIKQDGGEKYYVDSVKGRFTISRDNAKTSLYLQMNSLRAEDTAVYYCAKESYSTGWFDHWGQGTLVTVSSGGGGSGGGGSGGGGSNFMLTQDPAVSVALGQTVRITCQGDSLRKYYTSWYQQKPGQAPLLVMYAKNNRPSGIPDRFSGSSSGNTASLTITGAQAEDEADYYCDSRDSSGDHWVFGGGTKLTVLGAAAEQKLISEEDLNGAA
notes: also called D4 (clone before frame-shift repair)

The binders below were run against T1, bovine serum albumin (bovine, UniProt P02769 25-607) (assay: AFM single clone screening, phage on mica coated with antigen).
T1 construct: also called BSA
T1 sequence (P02769 25-607 limits assumed): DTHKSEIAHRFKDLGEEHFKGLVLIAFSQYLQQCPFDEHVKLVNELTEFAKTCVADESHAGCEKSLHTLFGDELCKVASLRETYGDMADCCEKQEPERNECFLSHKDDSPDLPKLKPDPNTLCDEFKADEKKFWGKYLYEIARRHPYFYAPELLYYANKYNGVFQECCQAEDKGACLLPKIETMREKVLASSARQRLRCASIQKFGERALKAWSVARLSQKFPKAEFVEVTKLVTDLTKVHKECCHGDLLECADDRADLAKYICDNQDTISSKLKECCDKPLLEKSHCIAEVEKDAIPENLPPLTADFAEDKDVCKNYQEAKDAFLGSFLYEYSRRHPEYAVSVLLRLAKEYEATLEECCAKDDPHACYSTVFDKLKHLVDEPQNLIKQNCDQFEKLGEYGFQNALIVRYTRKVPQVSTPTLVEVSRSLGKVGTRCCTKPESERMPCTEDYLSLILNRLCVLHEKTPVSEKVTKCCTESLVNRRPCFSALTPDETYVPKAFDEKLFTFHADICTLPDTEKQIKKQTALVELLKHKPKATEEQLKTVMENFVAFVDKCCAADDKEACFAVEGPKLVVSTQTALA

Binding result, no binding:
B1, B2, B3
